Assay results from publication doi:10.1101/2024.07.11.602925.

Molecular target: His-tagged PTB domain of RABGAP1
Experiment: ITC

- Kd: 61 µM
- stoichiometry N: 1
Substance: WT APP tail peptide, starting from the MQQ sequence at position 677 (from UniProt P05067-4 677-695)
